B1: MCR-1 full-length protein (enzyme)
chain: MMQHTSVWYRRSVSPFVLVASVAVFLTATANLTFFDKISQTYPIADNLGFVLTIAVVLFGAMLLITTLLSSYRYVLKPVLILLLIMGAVTSYFTDTYGTVYDTTMLQNALQTDQAETKDLLNAAFIMRIIGLGVLPSLLVAFVKVDYPTWGKGLMRRLGLIVASLALILLPVVAFSSHYASFFRVHKPLRSYVNPIMPIYSVGKLASIEYKKASAPKDTIYHAKDAVQATKPDMRKPRLVVFVVGETARADHVSFNGYERDTFPQLAKIDGVTNFSNVTSCGTSTAYSVPCMFSYLGADEYDVDTAKYQENVLDTLDRLGVSILWRDNNSDSKGVMDKLPKAQFADYKSATNNAICNTNPYNECRDVGMLVGLDDFVAANNGKDMLIMLHQMGNHGPAYFKRYDEKFAKFTPVCEGNELAKCEHQSLINAYDNALLATDDFIAQSIQWLQTHSNAYDVSMLYVSDHGESLGENGVYLHGMPNAFAPKEQRSVPAFFWTDKQTGITPMATDTVLTHDAITPTLLKLFDVTADKVKDRTAFIR
B2: SspB protein (SPR analyte) (natural protein)
chain: MDLSQLTPRRPYLLRAFYEWLLDNQLTPHLVVDVTLPGVQVPMEYARDGQIVLNIAPRAVGNLELANDEVRFNARFGGIPRQVSVPLAAVLAIYARENGAGTMFEPEAAYDEDTSIMNDEEASADNETVMSVIDGDKPDHDDDTHPDDEPPQPPRGGRPALRVVK
notes: Stringent starvation protein B, E. coli; also called Stringent starvation protein B
B3: MCR-1-200 catalytic domain protein (domain or fragment)
chain: SVGKLASIEYKKASAPKDTIYHAKDAVQATKPDMRKPRLVVFVVGETARADHVSFNGYERDTFPQLAKIDGVTNFSNVTSCGTSTAYSVPCMFSYLGADEYDVDTAKYQENVLDTLDRLGVSILWRDNNSDSKGVMDKLPKAQFADYKSATNNAICNTNPYNECRDVGMLVGLDDFVAANNGKDMLIMLHQMGNHGPAYFKRYDEKFAKFTPVCEGNELAKCEHQSLINAYDNALLATDDFIAQSIQWLQTHSNAYDVSMLYVSDHGESLGENGVYLHGMPNAFAPKEQRSVPAFFWTDKQTGITPMATDTVLTHDAITPTLLKLFDVTADKVKDRTAFIR

Columns and labels:
[1] = target: T1, SspB protein (SPR analyte) (E. coli, UniProt P0AFZ3 1-165); experiment: SPR
T1 chain: B2 chain

[2] = target: T2, MCR-1 full-length protein (E. coli (strain SHP45), UniProt A0A0R6L508 1-541); experiment: SPR; Reichert 4SPR; MCR-1 or MCR-1-200 in PBS directly immobilised on a Planar Mixed SAM chip; SspB 0.156-5 μM (twofold dilutions) in PBST pH 7.4, 0.05% Tween-20; details: both partners purified
T2 construct: MCR-1, phosphoethanolamine transferase; gene amplified from E. coli strain SHP45; 541 amino acids; also called His6-MCR-1; source: E. coli BL21 (DE3) (pET28a-mcr-1), IPTG-induced; in lysate (1% DDM) for the Co-IP; purified (Ni-NTA) for SPR
T2 sequence: B1 chain

[3] = target: T3, MCR-1-200 catalytic domain protein (E. coli (strain SHP45), UniProt A0A0R6L508 201-541); experiment: as above; details: both partners purified
T3 construct: catalytic domain of MCR-1, 341 amino acids; also called catalytic domain of MCR-1; MCR-1 catalytic protein; source: E. coli BL21 (DE3) (pET28a-mcr-1-200), IPTG-induced; in lysate (1% DDM) for the Co-IP; purified (Ni-NTA) for SPR
T3 sequence: B3 chain

Binder | koff [1] | Kd [2] | Kd [3]
B1 | 0.325 s⁻¹ |  | 
B2 |  | 140 µM | 5.13 µM
B3 | 0.0106 s⁻¹ |  | 
